From publication PMC3954559

Key:
[1] = target: partially deglycosylated Fc (mouse IgG3 Fc domain treated with a mixture of endoglycosidases) (mouse); assay: SPR
[2] = target: commercial immunoglobulin containing Fc; assay: SPR

B1: mouse Fc receptor (FcR gamma I) (receptor)
chain: EVVNATKAVITLQPPWVSIFQKENVTLWCEGPHLPGDSSTQWFINGTAVQISTPSYSIPEASFQDSGEYRCQIGSSMPSDPVQLQIHNDWLLLQASRRVLTEGEPLALRCHGWKNKLVYNVVFYRNGKSFQFSSDSEVAILKTNLSHSGIYHCSGTGRHRYTSAGVSITVKELFTTPVLRASVSSPFPEGSLVTLNCETNLLLQRPGLQLHFSFYVGSKILEYRNTSSEYHIARAEREDAGFYWCEVATEDSSVLKRSPELELQVLGPQSSAPVWFHILFYLSVGIMFSLNTVLYVKIHRLQREKKYNLEVPLVSEQGKKANSFQQVRSDGVYEEVTATASQTTPKEAPDGPRSSVGDCGPEQPEPLPPSDSTGAQTSQS
B1 gave a Kd [1] of 1330 nM and a Kd [2] of 384 nM.
